Test results: patent publication EP4810516A1 (Shanghai Shengdi Pharmaceutical Co., Ltd., dated 2026)

T1: recombinant human γ8δ2 TCR protein (human)
T1 chain 1: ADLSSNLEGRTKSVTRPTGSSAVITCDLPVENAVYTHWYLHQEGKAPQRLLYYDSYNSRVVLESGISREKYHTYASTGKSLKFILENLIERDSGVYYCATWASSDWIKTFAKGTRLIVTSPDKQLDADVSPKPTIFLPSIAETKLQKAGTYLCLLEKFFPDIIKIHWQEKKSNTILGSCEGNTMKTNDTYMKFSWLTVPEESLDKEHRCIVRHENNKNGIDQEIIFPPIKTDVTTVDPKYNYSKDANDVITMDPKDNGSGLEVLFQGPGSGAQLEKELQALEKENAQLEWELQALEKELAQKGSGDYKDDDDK
T1 chain 2: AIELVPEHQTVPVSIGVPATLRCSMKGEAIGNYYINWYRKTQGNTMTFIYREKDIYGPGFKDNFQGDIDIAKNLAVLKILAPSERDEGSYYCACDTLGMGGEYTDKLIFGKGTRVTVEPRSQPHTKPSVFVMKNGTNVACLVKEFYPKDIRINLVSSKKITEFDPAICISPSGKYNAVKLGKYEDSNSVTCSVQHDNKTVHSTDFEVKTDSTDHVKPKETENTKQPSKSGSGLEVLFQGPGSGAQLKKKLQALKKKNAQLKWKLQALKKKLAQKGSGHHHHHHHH

T2: recombinant monkey (Macaca mulatta) γ9δ2 TCR protein (monkey (Macaca mulatta); called …)
T2 construct: also called Monkey γ9δ2 TCR; Cynomolgus monkey γ9δ2
T2 V domain 1: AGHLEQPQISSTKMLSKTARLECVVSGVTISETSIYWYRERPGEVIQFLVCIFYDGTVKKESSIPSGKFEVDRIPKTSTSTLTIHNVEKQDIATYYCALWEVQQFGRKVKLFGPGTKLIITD
T2 V domain 2: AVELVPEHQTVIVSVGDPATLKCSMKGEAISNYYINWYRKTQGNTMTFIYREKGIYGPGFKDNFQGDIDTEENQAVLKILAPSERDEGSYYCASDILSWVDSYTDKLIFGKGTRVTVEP

B1: SDP01346 (VHH, not shown: small tags and cut ends)
VHH: QVQLVESGGGLVQAGGSLRLSCTVSGSTFSDFAMGWLRQAPGKEREFVAAISWTGGRTYYADSVKGRFAISRDNGENTVYLQMNSLKSEDTAIYYCAASRDCSGPGCRVHEYDYWGQGTQVTVSS
notes: also called clone No. ac-025; anti-γδTCR single-domain antibody
B2: SDP01315 (antibody, V domains shown)
VH: EVKLVESGGGLVKPGGSLKLSCAASGFTFSSYAMSWVRQTPEKRLEWVASISSGGSTYYPDSVKGRFTISRDNARNILYLQMSSLRSEDTAMYYCARDGYPPFDYWGQGTTLTVSS
VL: DIVMTQSQKFMSTSVGDRVSVTCKASQNVGTNVAWYQQKPGQSPKALIYSASYRYSGVPDRFTGSGSGTDFTLTISNVQSEDLAEYFCQQYNSFPLTFGSGTKLEIK
notes: Tested as a chimeric antibody (Protein A purified, detected with anti-human Fc); also called clone No. bph-003; murine-derived anti-γδTCR antibody
B3: SDP01696 (bispecific antibody, human IgG1, kappa)
heavy 1: not shown
light 1: DIQMTQSPSSVSASVGDRVTITCKASQNVGTNVAWYQQKPGKAPKALIYSASYRYSGVPSRFSGSGSGTDFTLTISSLQPEDFATYYCQQYNSFPLTFGQGTKLEIKGGGGSGIPPKIECLPIDISIDEGKVLTVASAFTGEPTPEVTWSTGGRKIHSQEQGRFHIENTDDSTTLTIKDVQKQDGGLYTLTLRNEFGSDSATVNIHIRSI
heavy 2: QVQLVQSGAEVKKPGASVKVSCKASGYTFTDYEMHWVRQAPGQGLEWMGALDPKTGDTAYSQKFKGRVTLTADKSTSTAYMELSSLTSEDTAVYYCTRFYSYTYWGQGTLVTVSSASTKGPSVFPLAPSSKSTSGGTAALGCLVKDYFPEPVTVSWNSGALTSGVHTFPAVLQSSGLYSLSSVVTVPSSSLGTQTYICNVNHKPSNTKVDKKVEPKSCDKTHTCPPCPAPEFEGGPSVFLFPPKPKDTLMISRTPEVTCVVVDVSHEDPEVKFNWYVDGVEVHNAKTKPREEQYNSTYRVVSVLTVLHQDWLNGKEYKCKVSNKALPAPIEKTISKAKGQPREPQVCTLPPSREEMTKNQVSLSCAVKGFYPSDIAVEWESNGQPENNYKTTPPVLDSDGSFFLVSKLTVDKSRWQQGNVFSCSVMHEALHNHYTQKSLSLSPGK
light 2: DVVMTQSPLSLPVTPGEPASISCRSSQSLVHSNRNTYLHWYLQKPGQSPQLLIYKVSNRFSGVPDRFSGSGSGTDFTLKISRVEAEDVGVYYCSQNTHVPPTFGQGTKLEIKRTVAAPSVFIFPPSDEQLKSGTASVVCLLNNFYPREAKVQWKVDNALQSGNSQESVTEQDSKDSTYSLSSTLTLSKADYEKHKVYACEVTHQGLSSPVTKSFNRGEC
notes: also called anti-GPC3/γδTCR bispecific antibody (1+1, with SDP01315H2L2)
B4: SDP01704 (bispecific antibody, human IgG1, kappa)
heavy 1: not shown
light 1: DIQMTQSPSSVSASVGDRVTITCKASQNVGTNVAWYQQKPGKAPKALIYSASYRYSGVPSRFSGSGSGTDFTLTISSLQPEDFATYYCQQYNSFPLTFGQGTKLEIKGGGGSGIPPKIECLPIDISIDEGKVLTVASAFTGEPTPEVTWSTGGRKIHSQEQGRFHIENTDDSTTLTIKDVQKQDGGLYTLTLRNEFGSDSATVNIHIRSI
heavy 2: QVQLVQSGAEVKKPGASVKVSCKASGYTFTDYEMHWVRQAPGQGLEWMGALDPKTGDTAYSQKFKGRVTLTADKSTSTAYMELSSLTSEDTAVYYCTRFYSYTYWGQGTLVTVSSASTKGPSVFPLAPSSKSTSGGTAALGCLVKDYFPEPVTVSWNSGALTSGVHTFPAVLQSSGLYSLSSVVTVPSSSLGTQTYICNVNHKPSNTKVDKKVEPKSCDGGGGSGGGGSQVQLVQSGAEVKKPGASVKVSCKASGYTFTDYEMHWVRQAPGQGLEWMGALDPKTGDTAYSQKFKGRVTLTADKSTSTAYMELSSLTSEDTAVYYCTRFYSYTYWGQGTLVTVSSASTKGPSVFPLAPSSKSTSGGTAALGCLVKDYFPEPVTVSWNSGALTSGVHTFPAVLQSSGLYSLSSVVTVPSSSLGTQTYICNVNHKPSNTKVDKKVEPKSCDKTHTCPPCPAPEFEGGPSVFLFPPKPKDTLMISRTPEVTCVVVDVSHEDPEVKFNWYVDGVEVHNAKTKPREEQYNSTYRVVSVLTVLHQDWLNGKEYKCKVSNKALPAPIEKTISKAKGQPREPQVCTLPPSREEMTKNQVSLSCAVKGFYPSDIAVEWESNGQPENNYKTTPPVLDSDGSFFLVSKLTVDKSRWQQGNVFSCSVMHEALHNHYTQKSLSLSPGK
light 2: DVVMTQSPLSLPVTPGEPASISCRSSQSLVHSNRNTYLHWYLQKPGQSPQLLIYKVSNRFSGVPDRFSGSGSGTDFTLKISRVEAEDVGVYYCSQNTHVPPTFGQGTKLEIKRTVAAPSVFIFPPSDEQLKSGTASVVCLLNNFYPREAKVQWKVDNALQSGNSQESVTEQDSKDSTYSLSSTLTLSKADYEKHKVYACEVTHQGLSSPVTKSFNRGEC
notes: Bivalent for GPC3; also called anti-GPC3/γδTCR bispecific antibody (2+1, with SDP01315H2L2)
B5: SDP01716 (bispecific antibody, human IgG1, kappa)
heavy 1: not shown
heavy 2: QVQLVQSGAEVKKPGASVKVSCKASGYTFTDYEMHWVRQAPGQGLEWMGALDPKTGDTAYSQKFKGRVTLTADKSTSTAYMELSSLTSEDTAVYYCTRFYSYTYWGQGTLVTVSSASTKGPSVFPLAPSSKSTSGGTAALGCLVKDYFPEPVTVSWNSGALTSGVHTFPAVLQSSGLYSLSSVVTVPSSSLGTQTYICNVNHKPSNTKVDKKVEPKSCDKTHTCPPCPAPEFEGGPSVFLFPPKPKDTLMISRTPEVTCVVVDVSHEDPEVKFNWYVDGVEVHNAKTKPREEQYNSTYRVVSVLTVLHQDWLNGKEYKCKVSNKALPAPIEKTISKAKGQPREPQVCTLPPSREEMTKNQVSLSCAVKGFYPSDIAVEWESNGQPENNYKTTPPVLDSDGSFFLVSKLTVD
light: DVVMTQSPLSLPVTPGEPASISCRSSQSLVHSNRNTYLHWYLQKPGQSPQLLIYKVSNRFSGVPDRFSGSGSGTDFTLKISRVEAEDVGVYYCSQNTHVPPTFGQGTKLEIKRTVAAPSVFIFPPSDEQLKSGTASVVCLLNNFYPREAKVQWKVDNALQSGNSQESVTEQDSKDSTYSLSSTLTLSKADYEKHKVYACEVTHQGLSSPVTKSFNRGEC
notes: Knob-into-hole IgG1 Fc with L234F/L235E; also called anti-GPC3/γδTCR bispecific antibody (1+1, with SDP01346H4)

How the values were obtained:
[1] = target: T1, recombinant human γ8δ2 TCR protein; experiment: ELISA, plate coated with 1 µg/mL recombinant TCR protein, antibody at 30 nM
[2] = target: T1, recombinant human γ8δ2 TCR protein; experiment: ELISA, plate coated with 1 µg/mL recombinant TCR protein
[3] = target: T3, human GPC3 naturally expressed on tumor cells (human, UniProt P51654 25-580); experiment: cell-based or functional assay
[4] = target: T2, recombinant monkey (Macaca mulatta) …; experiment: SPR (Biacore 8K), antibody captured on Protein A chip, antigen as analyte
[5] = target: T3, human GPC3 naturally expressed on tumor …; experiment: FACS on HepG2 cells (natural human GPC3), anti-human Fc secondary
[6] = target: T4, human GPC3 (Sino Biological, Cat#10088-H08H) (human, UniProt P51654 25-559); experiment: SPR (Biacore 8K), antibody captured on Protein A chip, antigen as analyte
T4 construct: Bought protein; also called human GPC3 protein

[7] = target: T5, cynomolgus monkey GPC3 (Acrobiosystems, Cat#GP3-C5225) (cynomolgus monkey, UniProt A0A2K5VK50 24-558); experiment: as above
T5 construct: Bought protein

[8] = target: T3, human GPC3 naturally expressed on tumor …; experiment: cell-based or functional assay; remark: listed apart in the source

T4 sequence (P51654 25-559 limits assumed): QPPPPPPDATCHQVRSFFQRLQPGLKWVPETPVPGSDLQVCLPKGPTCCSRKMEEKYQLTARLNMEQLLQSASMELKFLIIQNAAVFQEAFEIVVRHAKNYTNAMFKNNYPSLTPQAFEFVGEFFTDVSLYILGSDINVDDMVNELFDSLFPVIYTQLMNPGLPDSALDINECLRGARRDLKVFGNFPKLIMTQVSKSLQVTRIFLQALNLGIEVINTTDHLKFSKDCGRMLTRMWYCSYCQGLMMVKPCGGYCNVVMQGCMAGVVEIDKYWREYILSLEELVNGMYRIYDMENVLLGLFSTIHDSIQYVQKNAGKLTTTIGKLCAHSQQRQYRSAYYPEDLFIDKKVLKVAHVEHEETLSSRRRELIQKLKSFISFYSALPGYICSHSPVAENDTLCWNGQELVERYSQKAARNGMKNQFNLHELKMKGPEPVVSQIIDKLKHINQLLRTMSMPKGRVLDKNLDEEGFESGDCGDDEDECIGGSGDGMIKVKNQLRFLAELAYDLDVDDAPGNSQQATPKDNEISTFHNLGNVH
T3 sequence (P51654 25-580, form in doubt): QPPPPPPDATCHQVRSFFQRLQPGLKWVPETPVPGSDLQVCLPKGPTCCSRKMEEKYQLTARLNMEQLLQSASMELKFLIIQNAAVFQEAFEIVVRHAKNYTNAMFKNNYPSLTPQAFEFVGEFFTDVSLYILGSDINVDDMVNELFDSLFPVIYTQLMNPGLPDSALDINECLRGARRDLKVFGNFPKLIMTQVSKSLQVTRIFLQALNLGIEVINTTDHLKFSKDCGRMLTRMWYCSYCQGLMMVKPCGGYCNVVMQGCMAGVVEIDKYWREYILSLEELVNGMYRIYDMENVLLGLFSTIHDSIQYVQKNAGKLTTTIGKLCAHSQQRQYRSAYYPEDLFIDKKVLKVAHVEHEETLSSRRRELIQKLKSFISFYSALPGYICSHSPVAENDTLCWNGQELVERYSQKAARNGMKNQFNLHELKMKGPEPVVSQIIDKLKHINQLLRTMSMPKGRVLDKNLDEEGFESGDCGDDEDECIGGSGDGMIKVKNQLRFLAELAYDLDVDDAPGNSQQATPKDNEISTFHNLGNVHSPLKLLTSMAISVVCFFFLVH

Row | Binder | absorbance at 450 nm [1] [absorbance at 450 nm] | binding result [2] | γδT killing of HepG2, EC50 (LDH assay) [3] [nM] | γδT killing of HepG2, Emax (LDH assay) [3] [%] | γδT killing of Huh-7, EC50 (LDH assay) [3] [nM] | γδT killing of Huh-7, Emax (LDH assay) [3] [%] | γδT killing of MKN-45, EC50 (LDH assay) [3] [nM] | γδT killing of MKN-45, Emax (LDH assay) [3] [%] | Kd [4] [nM] | EC50 [5] [nM] | Kd [6] [nM] | Kd [7] [nM] | Killing activity against HepG2, EC50, γδ T cells of donor #SC12004 (LDH assay) [8] [nM] | Killing activity against HepG2, EC50, γδ T cells of donor #SC12392 (LDH assay) [8] [nM] | Killing activity against HepG2, EC50, γδ T cells of donor #XC11053 (LDH assay) [8] [nM] | Killing activity against HepG2, EC50, γδ T cells of donor #XC11061 (LDH assay) [8] [nM]
1 | B1 | 0.108 | – | – | – | – | – | – | – | – | – | – | – | – | – | – | –
2 | B2 | 0.192 | no binding (tested: 30 nM) | – | – | – | – | – | – | – | – | – | – | – | – | – | –
3 | B3 | – | – | 0.06 | 70.1 | 0.21 | 50.9 | 0.024 | 11 | 42.4 | 5.17 | 1.74 | 1.47 | – | – | – | –
4 | B4 | – | – | 0.03 | 72 | 0.11 | 61.7 | 0.016 | 6.6 | 40.6 | 2.47 | 1.84 | 1.63 | – | – | – | –
5 | B5 | – | – | 0.01 | 70.3 | 0.06 | 93.8 | 0.004 | 10.3 | 68.8 | 4.85 | 1.65 | 1.47 | 0.038 | 0.033 | 0.017 | 0.054
